The values below come from PMC6881174.

“And” between values parts separate entries of the source, which are not always exact repeats. Equal entries are not always repeated.

As a reminder, the stoichiometry N is the number of molecules, sites or subunits per partner or assembly.

The target of this test is TRIM5α from African green monkey, L81F (African green monkey). Briefly: cryo-EM structure.

In the case of “TRIM5α from African green monkey, L81F (natural protein)”, the stoichiometry N is 3 and 2.
